# Data published in a protein production outcome set (Wang et al. 2014).
# Test: label from the status in PepcDB records
row,Sequence,protein production
1,MDIVLIGGLWLNGSVWEGVASTLESLGHRPVPLTLPGQGDGAATATLDDQVAAVLAAVDAAPGRPMVVGHSAACALAWLAADRRPGRLAKVALIGGIPTPDGRPYADFFEVRDGVMPFPGWEPFQGPDAADLDEAARHELAAAAIPVPEAVARGVVRLSDERRYDVPVVVVCPEFTPAQARGWIDAGDVPELARAKHVDFADIDSGHWPMITKPAELARVLAAAAEGN,failed
2,MGHHHHHHSHMASPSKAVIVPGNGGGDVTTHGWYGWVKKELEKIPGFQCLAKNMPDPITARESIWLPFMETELHCDEKTIIIGHSSGAIAAMRYAETHRVYAIVLVSAYTSDLGDENERASGYFTRPWQWEKIKANCPYIVQFGSTDDPFLPWKEQQEVADRLETKLHKFTDCGHFQNTEFHELITVVKSLLKVPA,failed
3,MIPLSESFESGIPAIWKTIDADGDGYNWMHLTNFTGQSGLCVSSASYIGGVGALTPDNYLITPELKLPTDALVEIIYWVCTQDLTAPSEHYAVYSSSTGNNAADFVNLLYEETLTAKRIQSPELIRGNRTQGVWYQRKVVLPNDTKYVAFRHFNSTDNFWLNLDEVSI,failed
4,SFGVKDAIFKIKRSIAGTDSSDSTAYTTASESSPQLKDSHNPFRNKTTSERTIVEEGSLPPVRLNGYLPSTKNKLLTPEMCDEIRTLMPTRIQLYTEWNLLYSLEQHGSSLHSLYSNVAPDSKEFRRVGYVLVIKDRKNGIFGAYSNEAFHPNEHRQYTGNGECFLWKLDKVPDVNISEKEESEQEGKEGKEEGDKEERWRFSGYPYTGVNEFAIYCTSEFLSMGAGDGHYGLLCDDGLLHGVSNPCQTYGNEVLSKEGKKFSIVALEVWRVG,not failed
5,MTILTRYIAGAYLKILGLCLASFVAIYLVIDFLEKIGRLLRFQPRWIDIIQYFICKLPEIITQVIPLAVLMSTLLTLGMLSRNSEIVAMRGCGVGLGRISAPLIVIAAAVSLLTIFSNEFVLPSSYRQMRYVDQVLIRKQGTNTFFRQNNIWHKDESAIMMARVFDPGRQALRGITLWRFSDGMRPVSRIDAAEGTWDGARWTFKTVTVRGLAGPSVETRTLASLPAELNLKIEDLKVVDKYADNMGFFKLRDYVRKLKAGGYDTTRYEAQMHSKISLPFASLIMAFLGIPFALRGGRSSGVALGITASIGIGFAYFITNSILISFGQTGILPPLISAWAANVLFALSGIWLAMTLDR,failed
6,PGSPPGEGAPLAADVYVGNLPRDARVSDLKRALRELGSVPLRLTWQGPRRRAFLHYPDSAAAQQAVSCLQGLRLGTDTLRVALARQQRDK,not failed
7,MEALVVVHKVASEGGRRPKTTVSDESGSHSREKGKSFQVKDSPENNYATGKVDSLERSHFSSSYNQERRQSEEQRR,failed
8,QADAGPDKELTLPVDSTTLDGSKSSDDQKIISYLWEKTQGPDGVQLENANSSVATVTGLQVGTYVFTLTVKDERNLQSQSSVNVIVKEE,not failed
9,MTLVTALIVLLVVLGVFFTLVAAVGVLRLPDVYTRSHAATKADTLGAGFAIAAVGLYFGTAGELVRAGLLLVFIYVTNPTAAHAITRAAYSQDVDVWTVDDNDTGTDTASAADGGDSQ,failed
10,FYTNRTVVKLMTMIMAPQPGESVYDPTCGSGGLLLNCALHLKDEGKEYRTLKLYGQEINLLTSAIARMNMFMHGIEEFDIVRGNTLSNPGLLENDELKKFNVILANPPYSIKSWDRKAFESDPYGRNVWGTPPQGCADYAFQQHIQKSLDLGNGRSISLWPHGILFRDAETAMRRKMIEQDQVECVIGLGPNLFYNSPMEACLLITKTNKIESKKDKILFINAVKEVRQDKNIGYLDQVHIDKIFNAYNKFENED,failed
11,QSGMKAELLDHGTAPVPSELAEYFPQVPEVALYHRLRCDEKTGEPTNHARNYVRPELAGRIDLDDLARWPMTKVLRDVVGMDISRITDTVEARLADPETARLLEVPLLSPILHYTGITYDLEGRVLDVAVIHYRGDRFSFTVTLDAT,failed
12,MMWESESDGGVGVGGGGGREYGDGVLSSNKHGGVKTDGFELRGQSWFVATDIPSDLLVKIGDMNFHLHKYPLLSRSGKMNRLIYESRDPDPTILILDDLPGGPEAFELASKFCYGVPVDLTATNISGLRCAAEYLEMTEDLEEGNLIFKTEAFLSYVVLSSWRDSILVLKSCEKLSPWAENLQIVRRCSESIAWKACSNPKGIRWAYTGKAPSPSTTNFAGSSPRWNESKDSSFYCSPSRNTNSQPVPPDWWFEDVSILRIDHFVRVITAIKVKGMRFELLGAVIMHYAGKWLPGLIKEGGVAIAPAMSSAIGGGLGLGGDEMSISCGSNSSGGSSGPDWKGGLHMVLSAGKTNGHQDSVACLAGLGISPKDQRMIVESLISIIPPQKDSVTCSFLLRLLRAANMLKVAPALITELEKRVGMQFEQATLQDLLIPGYNNKGETMYDVDLVQRLLEHFLVQEQTEGSSPSRMSPSPSQSMYADIPRGNNNNGGGGGGNNQNAKMRVARLVDSYLTEVARDRNLPLTKFQVLAEALPESARTCDDGLYRAIDSYLKAHPTLSEHERKRLCRVMDCQKLSMDACMHAAQNERLPLRVVVQVLFSEQVKISNALANTSLKESTTLGEAMGTYQPMIPNRKTLIEATPQSFQEGWAAAKKDINTLKFELETVKTKYVELQNEMEVMQRQFEKTGKVKNTPSSSAWTSGWKKLSKLTKMSGQESHDISSGGEQAGVDHPPPRKPRRWRNSIS,failed
13,MTLLFRYLFRNNLQVILPTLAVGTGLYLLSDLFDRLDDILEAGVPGNVAIWYFVAKTPLIISQILPAVFLLAALIQLCLMSRDRELMALQAGGVSFGAIARFFVVYGLLWAVLQLGFSQVLGVAGERESARIWQEQVRGRTPGTRDLTNVWFTDDNHVIHLEVVTPALRKGQGFAAYGLAADGIHIDTVIRAKAFTGTAGTWKLQDVEVFSTRDFGHAKLPEMSIAIGQDPQDFAVIDPGADPQRLPLWQLGDAVEKLRTAGSNVEGLRTAWHMKLAYAASLVVMGLLAVAMVTWRDNIYLATGLALVFTFLFYTMFTIGSTLGQKGIVSPPIAAWGADILVGVVASARLLLVLRPRSLR,failed
14,MEKEIKEKNLPLELTLVEASPRVGGKIQTVKKDGYIIERGPDSFLERKKSAPQLVKDLGLEHLLVNNATGQSYVLVNRTLHPMPKGAVMGIPTKIAPFVSTGLFSLSGKARAAMDFILPASKTKDDQSLGEFFRRRVGDEVVENLIEPLLSGIYAGDIDKLSLMSTFPQFYQTEQKHRSLILGMKKTRPQGSGQQLTAKKQGQFQTLSTGLQTLVEEIEKQLKLTKVYKGTKVTKLSHSGSCYSLELDNGVTLDADSVIVTAPHKAAAGMLSELPAISHLKNMHSTSVANVALGFPEGSVQMEHEGTGFVISRNSDFAITACTWTNKKWPHAAPEGKTLLRAYVGKAGDESIVDLSDNDIINIVLEDLKKVMNINGEPEMTCVTRWHESMPQYHVGHKQRIKELREALASAYPGVYMTGASFEGVGIPDCIDQGKAAVSDALTYLFS,failed
15,MRVFPVYAPKLIVKHARIFLTGVIWVKDLGRLEFEKGRFLLPRKSLPKVKQAILELNELIEAQNHQTKTALEHHHHHH,not failed
16,MSIEATLLARCESKCELCSSESPLTAYAVPPHGNVTVDTAIMVCDKCHSEIEEPKDINHWRCLNESMWSQVPAVQVTAWRQLTRLNSESWAQDALDMMYMEEEQKNWAMTGMSADDKTVDCNGTELKKGDDVTVIKDLPVKGTNQVIKQGTVIRGISLGDDPKLISGKANGGQSMYVIAEYCRKKLEHHHHHH,failed
17,MEKLVLGIIGIFFVISGFDYINNNKLGLGDKFKEGMISMGSIAISMVGIYSLSPLIGEGIGFLLTPISNFLGIDSSIFPSMFLAVDMGALGIAESLSSNIHMYWISGVIIASTLGATISFSIPLALGIIEEKYLEDLTTGLLYGIMTLPIAPIVAGLFLGVDIKLLLFNILPLIIFAILLAVFMNKFKDTTVKFFIKLGKLIQLVSILGLLVLGFLSIIGIKPIGSILPIDEALSVVGKIAIFLGGAYPLINFITEKFSKVLSKIGEKINIDEFSIAAFLGTLASNIILFQSFNKMSSKGRIALTAFSVSGAFVIGGQLGFVSLKTPEIINIYIASKLIAGITAMVVALIVHRKTEENLNDESQSEENIPVLES,failed
18,MKLLAITSCPNGIAHTYMAAENLQKAADRMGVQMKVETQGGIGVENELTEQEIREADAIIIAADRSVNKDRFIGKKLLAVGVQEGIRKPEELIQKAIGGDIPVYRSAVKTEASAQTEKKQNPIYRHLMNGVSFMVPFIVVGGLLIAVALTLGGEKTPKGLVIPDDSFWKTIEQIGAASFSFMIPILAGYIAYSIADKPGLVPGMIGGYIAATGSFYGSGSGAGFLGGIIAGFLAGYAALAIKKLKVPKAIQPIMPIIVIPVVSSLIVGLAFVLLIGAPVAQIFESLTVWLAGMQGSSSILLALILGAMISFDMGGPVNKVAFLFGSAMIGEGNYEIMGPIAVAICIPPIGLGIATFLGKRKFQAQEREMGKAAFTMGLFGITEGAIPFAAQDPLRVIPSIMAGSMTGSVIAMIGNVGDRVAHGGPIVAVLGAVDHVLMFFIAVIAGSLVTSLLVNVLKKEVTAAPAGISEAAAGNDIPQPNIEIEAESKKIEKPEITKLTDIIDTDLIEPHLSGDTRDDIIDEMIQKLSRKGVLHSESEFKQAIINRELEGTTAIGMNIAIPHGKSDAVKKPSVAFGIKRSGVDWRSLDGTDAKLIFMIAVPKESGGNEHLKLLQMLSRKLMDDTYRDKLLSAQTKEEAYKLLDEII,failed
19,SLNDLPGAGRMDVLCRCTSQALFISHGIRRDVEVYLLLLGPPSPPKSILIKGDEVRRMSPDERNVAGHIKKALAVECGKSWKKVHSGVYVSRKGLEELIEELSEKYSIIYLKEDGVDISNAQLPPNPLFVIGDHEGLTEEQEKVVERYAALKLSLSPLSLLAEQCVVIAHHHLDRLQF,not failed
20,MKALRAFAIVAASLLLATGAAAQVSLSPPSGPNPFPKPLEPEKPKPRPPAPAKAPATEAKDKAKKPGDKPDAKAAPEGGAATAEDPNVDLVYGAYQRGFYKTAFELAQKRAADNDAKAMTMLGELYANALGVKRDYKKAAEWYSRAADLGDREAMFALAMARMGGRGGPPNREEAAKWLAQAAKLGEPKAAYNLALLYLDGQTFPQDVKRAAELLRMAADAGNPEAQYALATFYKEGTGVTKSIEQSVRLLQAAALAGNVPAQVEYAIALYNGTGTPKNEPAAVALLRKAARANNPIAQNRLAHVLVSGQGAPRDINEAMKWHLIAKTAGKGDLQLDQTLAQMSAEDRAKAEEAARTWIGGGK,failed
21,MEEITDGVNNMNLATDSQKKNRIQVSNTKKPLFFYVNLAKRYMQQYNDVELSALGMAIATVVTVTEILKNNGFAVEKKIMTSTVDIKDDARGRPVQKAKIEITLVKSEKFDELMAAANEEKEDAEAQVQN,not failed
22,MKVGVIGASEMAGSAIYKLAKQNLEIDVTGIVRHESKAKKVLGDDAKLIVGDIFALSDNILDKFDVIIDAFGTDPKNAEEHVILAKKLINLVRKNKIRVIFILGAGSLHTGDDEHLVVDDIAQMDNADTWINTPRQQLKELEYLNSIDDVDWLGISPALQFEAGPATEYIEGTDELLYNKDGDSKLTSGTMATVVIKETVDSVHHQERITIANALEHHHHHH,not failed
23,DSLGREAKCYNELNGCTKIYDPVCGTDGNTYPNECVLCFENRKRQTSILIQKSGPC,failed
24,MSLKQQFSTKAFQAANLEAYKAQMKEMEESFGALLRQLPSDTEVPGLLEDITRTGLGSGLEFEEIKLLPEVAQQFYIELPIQISVVGGYHDLATFVSGVSSLPRIVTLHDFEIKPVAPGSTSKLRMSILAKTYRYNDKGEGHHHHHH,not failed
25,ATDSATAAPAAAATTQVQKEAADVLQVAVQGANAMRDIQFARLALFHGQPDSAKKLTDDAAALLAADDASWAKFVKTDAKAKMIADRYVIINASIALSEDYVATPEKESAIQSANEKLAKGDQKGAIDTLRLAGIGVIENQYLMPLNQTRKAVAQSQELLKAGKYYEANLVLKGAEEGIVVDSEMLVAGN,not failed
